According to US20190064177A1, “INCORPORATING COMPETITIVE BINDING INFORMATION INTO MOLECULAR ARRAY ANALYSIS TO GENERATE FUNCTION NETWORKS OF INTERACTIONS” (ARIZONA BOARD OF REGENTS ON BEHALF OF ARIZONA STATE …, priority 2017, published 2019):

Experiments:
Diaphorase [1] = assay: peptide array, 10 uM labeled diaphorase, no FAD
Diaphorase [2] = assay: peptide array, 1 uM diaphorase, binding without FAD / with FAD
Diaphorase [3] = assay: peptide array, 1 uM labeled diaphorase, with FAD
Diaphorase [4] = assay: peptide array, 10 uM labeled diaphorase, with FAD
Diaphorase [5] = assay: peptide array, 1 uM labeled diaphorase, no FAD
Diaphorase [6] = assay: peptide array, 10 uM diaphorase, binding without FAD / with FAD
Diaphorase [7] = assay: peptide array, 1 uM diaphorase, measured binding without FAD / with FAD

| fluorescence (Diaphorase [1]) | noFAD/FAD (Diaphorase [2]) | fluorescence (Diaphorase [3]) | fluorescence (Diaphorase [4]) | fluorescence (Diaphorase [5]) | noFAD/FAD (Diaphorase [6]) | Meas. ratio (noFAD/FAD) (Diaphorase [7]) | Binder |
| --- | --- | --- | --- | --- | --- | --- | --- |
| 63500 | 2.76 | 2100 | 34700 | 5800 | 1.83 | – | RFGQNLPLGGSG |
| 26200 | 0.64 | 6640 | 51500 | 4250 | 0.509 | – | VFGVLSQVARDGSG |
| – | – | – | – | – | – | 0.7 | GYHLFEKLYFDGS |
| – | – | – | – | – | – | 2.41 | PQKSNHFHEAQKR |
| – | – | – | – | – | – | 2.35 | WRSVYVPNGGSG |
| 56900 | 2.78 | 1600 | 19900 | 4470 | 2.86 | – | YRFAQYKGQKDGSG |
| – | – | – | – | – | – | 2.45 | RVLPYHGWKWFSG |
| – | – | – | – | – | – | 2.44 | PRFNWKPYGGSG |
| 2390 | 2.87 | 728 | 300 | 2090 | 0.794 | – | KHSFQKELGGSG |
| – | – | – | – | – | – | 1.49 | YRGAGKNKGGSG |
| – | – | – | – | – | – | 1.71 | RQRYPKVSGGSG |
| – | – | – | – | – | – | 0.78 | EGFGYLFAHVGGS |
| – | – | – | – | – | – | 1.74 | YRRPWKFRDGSG |
| – | – | – | – | – | – | 2.43 | WRVQAWRPNKVEG |
| 15700 | 0.627 | 3050 | 34200 | 1910 | 0.46 | – | FGKLYQLYNDGSG |
| – | – | – | – | – | – | 2.56 | YQRHQNVFAKSGG |
| – | – | – | – | – | – | 2.56 | YWRFYANWAQLFG |
| – | – | – | – | – | – | 2.18 | WRPFWKNLGGSG |
| 9480 | 0.637 | 2300 | 21200 | 1470 | 0.448 | – | VVQALFDGSG |
| – | – | – | – | – | – | 2.06 | YRWGAKHYGGSG |
| – | – | – | – | – | – | 0.75 | FYNFGYQDLEDGS |

| fluorescence (Diaphorase [1]) | noFAD/FAD (Diaphorase [2]) | fluorescence (Diaphorase [3]) | fluorescence (Diaphorase [4]) | fluorescence (Diaphorase [5]) | noFAD/FAD (Diaphorase [6]) | Meas. ratio (noFAD/FAD) (Diaphorase [7]) | Binder |
| --- | --- | --- | --- | --- | --- | --- | --- |
| 12600 | 0.652 | 3090 | 22700 | 2010 | 0.555 | – | AQVAVDGFYVDGSG |
| – | – | – | – | – | – | 2.1 | NRKFYWNAGGSG |
| 12700 | 0.637 | 2470 | 20200 | 1570 | 0.631 | – | FQFGKVVSDGSG |
| 8700 | 0.63 | 2470 | 23500 | 1560 | 0.369 | – | LKQLFLEGGSG |
| – | – | – | – | – | – | 0.7 | KEDKVFGFRFDGS |
| – | – | – | – | – | – | 0.7 | SGVLQFFGGSG |
| – | – | – | – | – | – | 0.69 | ALDKLSGLWKHVG |
| – | – | – | – | – | – | 1.6 | YRRFPYFPGGSG |
| 64800 | 2.78 | 3660 | 46300 | 10200 | 1.4 | – | RWYKNGGSG |
| 50300 | 2.87 | 1250 | 18200 | 3570 | 2.77 | – | RYNLYKPSDGSG |
| – | – | – | – | – | – | 0.7 | WHLLGWVGYGGSG |
| – | – | – | – | – | – | 0.77 | NHLLEGAFVSEGS |
| – | – | – | – | – | – | 0.87 | FLQFLGGSG |
| – | – | – | – | – | – | 0.66 | PVDFGYQLKVSGS |
| – | – | – | – | – | – | 2.18 | ARWQQYKFGGSG |
| 25700 | 0.641 | 3430 | 33600 | 2200 | 0.765 | – | WLDLGVFPYQHLGSG |
| – | – | – | – | – | – | 2.54 | WRLNPLQFGGSG |
| – | – | – | – | – | – | 0.69 | LFDNVLEFVEDGS |
| – | – | – | – | – | – | 0.69 | PVPWRHVNYAHSG |
| – | – | – | – | – | – | 2.43 | YRYGWQKYGGSG |
